From paper PMC9330073, “Cargo Recognition Mechanisms of Yeast Myo2 Revealed by AlphaFold2-Powered Protein Complex Prediction” (Biomolecules, 2022)
Where two headings read alike, the source gives them in different places.

Legend:
[1] = target: Kar9^N (N-terminal folded domain of Kar9) (Saccharomyces cerevisiae (strain S288c)) (UniProt P32526); experiment: ITC; 500 μM Myo2-GTD in the syringe titrated into 50 μM Kar9-MIS or Pea2-MIS in the cell, 25 °C; one-site binding model
[2] = target: Kar9^C (unstructured C-terminal region of Kar9) (Saccharomyces cerevisiae (strain S288c)) (UniProt P32526); experiment: as above
[3] = target: GST-Pea2-CC1 (GST-tagged Pea2-CC1; dimer) (Saccharomyces cerevisiae (strain S288c)) (UniProt P40091); experiment: as above
[4] = target: GST-Pea2-CC1 (GST-tagged Pea2-CC1; dimer) (Saccharomyces cerevisiae (strain S288c)) (UniProt P40091); experiment: SEC-MALS; 100 μL of 100 μM protein on Superdex 200 Increase 10/300 GL; 50 mM Tris-HCl pH 7.5, 100 mM NaCl, 1 mM EDTA, 1 mM DTT
[5] = target: T1, Myo2-GTD (globular tail domain of Myo2) (Saccharomyces cerevisiae (strain S288c), UniProt P19524 1152-1574); experiment: ITC
T1 chain: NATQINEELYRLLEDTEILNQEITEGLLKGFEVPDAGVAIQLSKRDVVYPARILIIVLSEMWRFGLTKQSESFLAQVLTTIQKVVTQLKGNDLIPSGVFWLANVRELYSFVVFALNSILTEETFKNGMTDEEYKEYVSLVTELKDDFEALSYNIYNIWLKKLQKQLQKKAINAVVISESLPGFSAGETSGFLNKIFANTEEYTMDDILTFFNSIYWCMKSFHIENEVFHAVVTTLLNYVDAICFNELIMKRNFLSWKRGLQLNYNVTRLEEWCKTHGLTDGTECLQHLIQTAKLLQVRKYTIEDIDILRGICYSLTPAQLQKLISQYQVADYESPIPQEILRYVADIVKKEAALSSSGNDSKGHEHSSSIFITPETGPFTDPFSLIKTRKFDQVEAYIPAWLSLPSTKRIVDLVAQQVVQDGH

Myo2-GTD D1297N = target: T2, Myo2-GTD D1297N (Saccharomyces cerevisiae); experiment: ITC
T2 chain: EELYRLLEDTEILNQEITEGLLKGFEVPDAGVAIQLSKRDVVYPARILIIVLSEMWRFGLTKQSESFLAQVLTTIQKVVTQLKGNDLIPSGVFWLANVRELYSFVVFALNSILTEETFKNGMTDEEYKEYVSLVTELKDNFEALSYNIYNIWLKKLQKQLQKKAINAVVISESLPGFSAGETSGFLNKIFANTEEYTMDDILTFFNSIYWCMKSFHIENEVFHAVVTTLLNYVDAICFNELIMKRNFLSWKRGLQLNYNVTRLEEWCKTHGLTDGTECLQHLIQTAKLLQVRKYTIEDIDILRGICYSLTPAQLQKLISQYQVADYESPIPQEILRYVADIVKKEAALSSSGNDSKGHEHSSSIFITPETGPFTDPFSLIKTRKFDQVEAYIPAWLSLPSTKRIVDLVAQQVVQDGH

Myo2-GTD Y1303A = target: T3, Myo2-GTD Y1303A (Saccharomyces cerevisiae); experiment: ITC
T3 chain: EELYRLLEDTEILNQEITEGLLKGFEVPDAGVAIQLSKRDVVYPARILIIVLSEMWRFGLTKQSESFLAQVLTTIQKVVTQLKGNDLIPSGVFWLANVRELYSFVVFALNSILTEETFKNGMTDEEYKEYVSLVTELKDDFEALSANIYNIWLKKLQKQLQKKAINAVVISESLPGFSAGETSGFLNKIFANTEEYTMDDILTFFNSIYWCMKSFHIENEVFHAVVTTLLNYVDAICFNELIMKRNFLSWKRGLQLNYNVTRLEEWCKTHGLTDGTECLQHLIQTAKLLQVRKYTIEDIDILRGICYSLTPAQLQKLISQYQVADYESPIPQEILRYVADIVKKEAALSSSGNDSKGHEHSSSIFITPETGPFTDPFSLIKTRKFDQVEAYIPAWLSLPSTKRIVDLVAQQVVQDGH

[6] = target: T4, Smy1-MIS::Myo2-GTD fusion protein (Saccharomyces cerevisiae | …); experiment: ITC
T4 chain: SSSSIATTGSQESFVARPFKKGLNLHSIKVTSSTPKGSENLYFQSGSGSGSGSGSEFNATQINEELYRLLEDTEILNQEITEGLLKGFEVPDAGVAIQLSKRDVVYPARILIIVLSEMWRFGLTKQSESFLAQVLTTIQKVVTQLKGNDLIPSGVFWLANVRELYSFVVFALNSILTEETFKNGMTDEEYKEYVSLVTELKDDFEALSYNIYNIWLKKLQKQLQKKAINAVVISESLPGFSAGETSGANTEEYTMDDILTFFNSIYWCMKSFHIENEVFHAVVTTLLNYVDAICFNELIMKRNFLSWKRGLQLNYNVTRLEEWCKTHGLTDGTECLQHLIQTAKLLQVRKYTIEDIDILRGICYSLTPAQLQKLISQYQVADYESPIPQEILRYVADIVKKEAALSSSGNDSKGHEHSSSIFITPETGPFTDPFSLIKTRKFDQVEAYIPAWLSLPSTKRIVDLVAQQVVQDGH

[7] = target: T1, Myo2-GTD (globular tail domain of Myo2); experiment: ITC
Myo2-GTD L1331S = target: T5, Myo2-GTD L1331S (Saccharomyces cerevisiae (strain S288c)); experiment: ITC
T5 chain: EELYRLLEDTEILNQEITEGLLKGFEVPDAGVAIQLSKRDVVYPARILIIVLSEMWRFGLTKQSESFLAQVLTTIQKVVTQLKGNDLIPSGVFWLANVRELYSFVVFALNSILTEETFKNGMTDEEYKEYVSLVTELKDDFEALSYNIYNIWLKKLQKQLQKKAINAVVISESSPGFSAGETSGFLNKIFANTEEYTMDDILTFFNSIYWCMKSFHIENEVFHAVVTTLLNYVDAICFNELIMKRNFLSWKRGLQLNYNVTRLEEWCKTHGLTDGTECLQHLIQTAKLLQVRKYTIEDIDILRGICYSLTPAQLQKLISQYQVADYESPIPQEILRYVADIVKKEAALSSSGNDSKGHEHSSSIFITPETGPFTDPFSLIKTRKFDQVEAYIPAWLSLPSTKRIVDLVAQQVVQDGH

Myo2-GTD W1407A = target: T6, Myo2-GTD W1407A (Saccharomyces cerevisiae (strain S288c)); experiment: ITC
T6 chain: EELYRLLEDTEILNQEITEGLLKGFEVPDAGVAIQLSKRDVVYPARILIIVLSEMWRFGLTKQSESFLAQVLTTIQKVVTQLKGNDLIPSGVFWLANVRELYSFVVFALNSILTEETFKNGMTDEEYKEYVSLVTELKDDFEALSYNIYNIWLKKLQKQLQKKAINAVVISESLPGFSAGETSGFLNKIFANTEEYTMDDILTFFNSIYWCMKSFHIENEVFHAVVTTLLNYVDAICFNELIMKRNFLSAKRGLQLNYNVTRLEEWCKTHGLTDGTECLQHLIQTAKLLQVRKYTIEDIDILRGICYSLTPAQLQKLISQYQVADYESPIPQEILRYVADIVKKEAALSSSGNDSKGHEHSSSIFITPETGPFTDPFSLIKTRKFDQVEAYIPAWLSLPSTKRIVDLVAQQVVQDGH

**Q.** For “Myo2-GTD (globular tail domain of Myo2) (from UniProt P19524 1152-1574) (domain or fragment)”, which Kd [1] is on record?
**A.** 16 µM

**Q.** And the Kd [2]?
**A.** 3 µM

**Q.** What about the fold enhancement of the binding affinity over the Pea2-CC1 monomer [3] of the same molecule?
**A.** 5 fold

**Q.** And the stoichiometry N [3]?
**A.** 0.5

**Q.** For “GST-Pea2-CC1 (GST-tagged Pea2-CC1; dimer) (from UniProt P40091 235-327) (domain or fragment)”, which stoichiometry N [4] is on record?
**A.** 2

**Q.** For NHGFHLDILKGRK [Inp2], which Kd [5] is on record?
**A.** 32 µM

**Q.** SSSSIATTGSQESFVARPFKKGLNLHSIKVTSSTPK (domain or fragment) [Smy1-MIS (Myo2-interacting sequence of Smy1)] was tested. Which Kd (Myo2-GTD D1297N) did it give?
**A.** 14 µM

**Q.** And the Kd (Myo2-GTD Y1303A)?
**A.** 14 µM

**Q.** What about the Kd [5] of the same molecule?
**A.** 21 µM

B1: Mmr1 (peptide)
chain: GNSARIPCPKTRLARVSVLDLKKIEEQPDSSSG
modifications: Limits taken from 6IXQ: the fusion as Smy1-MIS, TEV site, SG linker, Myo2-GTD, assumed uncleaved as a single chain; the linker is part of the fusion
**Q.** B1 was tested. Which Kd [6] did it give?
**A.** 6.2 µM

**Q.** Which results are given for GNSARIPCPKTRLARVSVLDLKKIEEQPDSSSG?
**A.** Kd (Myo2-GTD D1297N): 21 µM; Kd [5]: 6.8 µM

B2: GST-Pea2-CC1 (GST-tagged Pea2-CC1; dimer) (domain or fragment)
chain: AIQEEDSSKKLEELETAFSDLQLAHNFLTKQFENDRAEYVQDIEKLTRTNRELQDKLLNNHSNLSKTEKKLHELEQENKELEKANNKLNSSRH
modifications: N-terminal GST (pGEX-4T-1) left out; GST drives the dimerization Limits taken from 6IXQ: the fusion as Smy1-MIS, TEV site, SG linker, Myo2-GTD, assumed uncleaved as a single chain; the linker is part of the fusion
**Q.** For B2, which Kd [6] is on record?
**A.** 12 µM

B3: Kar9 413-530 (protein)
chain: KKKIPKPKSLGFGRPNSVIGTITQDFQERVAINEGDSNKTPENSTTVALKGKKLGKALLQKMNIKPATSPNSSNAINPFFDPESPNKGKLILSSVPPLPYDETDETTLRVSRGENEKS
**Q.** B3 was tested. Which Kd [7] did it give?
**A.** 6.9 µM

B4: Vac17-MIS (Myo2-interacting sequence of Vac17) (domain or fragment)
chain: PNEAPNDSPQSQSTRSSLGSFQPRPLKIIERQRLCMVTPSKPPKKS
modifications: Limits taken from 6IXQ: the fusion as Smy1-MIS, TEV site, SG linker, Myo2-GTD, assumed uncleaved as a single chain; the linker is part of the fusion
**Q.** Which Kd [6] does the source give for B4 here?
**A.** 0.32 µM

B5: Kar9^N (N-terminal folded domain of Kar9) (domain or fragment)
chain: MDNDGPRSMTIGDDFQENFCERLERIHNTLHSINDCNSLNESTTSISETLLVQFYDDLENVASVIPDLVNKKRLGKDDILLFMDWLLLKKYMLYQFISDVHNIEEGFAHLLDLLEDEFSKDDQDSDKYNRFSPMFDVIEESTQIKTQLEPWLTNLKELLDTSLEFNEISKDHMDTLHKIINSNISYCLEIQEERFASPIRHTPSFTLEQLVKLLGTHTETTEPKVPKFSPAEDILSRKFLNLKKNIPPIEKSLTDILPQRIVQFGHRNITNITTLQTILQKKYELIMKDYRFMNSEFRELKVELIDKRWNILFINLNHELLYILDEIERLQSKLLTTKYTKDITIRLERQLERKSKTVSKTFNIIYRALEFSLLDAGVASKTNELAQRWLNIKPTADKILIKSSASNKIATSKKKIPKPKSLGFGRPNSVIGTITQDFQERVAINEGDSNKTPENSTTVALKGKKLGKALLQKMNIKPATSPNSSNAINPFFDPESPNKGKLILSSVPPLPYDETDETTLRVSRGENEKSPDSFITSRHENKVQITETPLMAKNKSVLDIEKDKWNHYRSLPSRIPIYKDKVVKVTVENTPIAKVFQTPPTKITTPNSQVWVPSTRRRTRLRPPTPLSQLLSPREGRLDKTPTY
**Q.** What does the source list for B5?
**A.** Kd (Myo2-GTD D1297N): 16 µM; Kd (Myo2-GTD Y1303A): 16 µM

B6: Kar9^N (N-terminal folded domain of Kar9) (domain or fragment)
chain: MDNDGPRSMTIGDDFQENFCERLERIHNTLHSINDCNSLNESTTSISETLLVQFYDDLENVASVIPDLVNKKRLGKDDILLFMDWLLLKKYMLYQFISDVHNIEEGFAHLLDLLEDEFSKDDQDSDKYNRFSPMFDVIEESTQIKTQLEPWLTNLKELLDTSLEFNEISKDHMDTLHKIINSNISYCLEIQEERFASPIRHTPSFTLEQLVKLLGTHTETTEPKVPKFSPAEDILSRKFLNLKKNIPPIEKSLTDILPQRIVQFGHRNITNITTLQTILQKKYELIMKDYRFMNSEFRELKVELIDKRWNILFINLNHELLYILDEIERLQSKLLTTKYTKDITIRLERQLERKSKTVSKTFNIIYRALEFSLLDAGVASKTNELAQRWLNIKPTADKILIKSSASNKIATSKKKIPKPKSLGFGRPNSVIGTITQDFQERVAINEGDSNKTPENSTTVALKGKKLGKALLQKMNIKPATSPNSSNAINPFFDPESPNKGKLILSSVPPLPYDETDETTLRVSRGENEKSPDSFITSRHENKVQITETPLMAKNKSVLDIEKDKWNHYRSLPSRIPIYKDKVVKVTVENTPIAKVFQTPPTKITTPNSQVWVPSTRRRTRLRPPTPLSQLLSPREGRLDKTPTY
modifications: Limits taken from 6IXQ: the fusion as Smy1-MIS, TEV site, SG linker, Myo2-GTD, assumed uncleaved as a single chain; the linker is part of the fusion
**Q.** With B6 as the molecule, how does the Kd [6] read?
**A.** 17 µM

B7: Kar9^C-MIS (Myo2-interacting sequence in the C-terminal region of Kar9) (domain or fragment)
chain: ALKGKKLGKALLQKMNIKPATSPNSSNAINPFFDPESPNKGKLILSSVPPLPY
**Q.** What does the source list for B7?
**A.** Kd (Myo2-GTD L1331S): 8.9 µM; Kd (Myo2-GTD D1297N): 7.7 µM; Kd (Myo2-GTD W1407A): 7.5 µM; Kd (Myo2-GTD Y1303A): 7.1 µM; Kd [7]: 7.7 µM
